# According to patent publication US20220195497A1 (ROCHE DIAGNOSTICS OPERATIONS, published 2022):
# T1: hTK (UniProt P04183 1-234)
# T1 sequence (looked up): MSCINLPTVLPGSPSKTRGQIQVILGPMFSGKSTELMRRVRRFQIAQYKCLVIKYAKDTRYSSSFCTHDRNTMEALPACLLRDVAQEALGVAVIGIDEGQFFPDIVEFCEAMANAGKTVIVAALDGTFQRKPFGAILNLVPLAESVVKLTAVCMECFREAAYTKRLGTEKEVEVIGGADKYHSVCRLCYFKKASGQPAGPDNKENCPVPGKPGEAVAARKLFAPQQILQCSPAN
# B1: 23C11-IgG (antibody, V domains shown)
# VH: CQSLEESGGRLVTPGTPLTLTCTASGFSLSNYYMSWVRQAPGKGLEWIGIIYGDDNTYCANWTKGRFTISKTSTTVDLTITSPTTEDTATYFCARGPDYIAAKMDIWGPGTLVTVSL
# VL: DVVMTQTPASVEAAVGGTVTIKCQASQSISGYLSWYQQKPGQRPKLLIYRASTLESGVPSRFKGSGSGTEFTLTISDLECADAATYYCQCTYGSSTFSSYGNAFGGGTEVVVK
# B2: 4H4-IgG (antibody, V domains shown)
# VH: CQSLEESGGGLVQPEGSLTLTCTASGFSFSSGYDMCWVRQTPGKGLEWIACISVDSDGVTYYASWAKGRFTISKTSSTTVTLQMTSLTAADTATYFCARGYESSSGVYIPYFTLWGPGTLVTVSS
# VL: DIVLTQTPASVEAAVGGTVTIKCQASQSIYSYLAWYQHKPGQPPKLLIYKASTLASGVPSRFKGSGSGTEYTLTISDLECADAATYYCQHYYYSSTSGGGVFGGGTEVVVK
# B3: 6C6-IgG (antibody, V domains shown)
# VH: QEQLEESGGDLVKPEGSLTLTCTASRFSFSSSYWICWVRQAPGKGLEWIACIYAGDSGSSYYASWAKGRFTVSKTSSTTVTLQTTSLTAADTATYFCARASVGAAYDYFALWGPGTLVTVSS
# VL: ALVMTQTPASVEAAMGGTVTIKCQASEDVSSHLAWYQQRPGQPPKLLIYGASDLASGVPSRFTGSGSGTQFTLAISDLECADAATYYCQGYYYISDSPYVFGGGTEVVVK
# Molecular target: T1, hTK
# Experiment: SPR sandwich matrix on hTK; row = primary antibody; secondary antibody (competitor): 4H4-IgG
row,Binder,Molar Ratio Epitope Accessibility (MREA)
1,B1,0
2,B2,0
3,B3,0

# Molecular target: T1, hTK
# Experiment: SPR sandwich matrix on hTK; row = primary antibody; secondary antibody (competitor): 6C6-IgG
row,Binder,Molar Ratio Epitope Accessibility (MREA)
1,B1,0
2,B2,0
3,B3,0

# Molecular target: T1, hTK
# Experiment: SPR sandwich matrix on hTK; row = primary antibody; secondary antibody (competitor): 23C11-IgG
row,Binder,Molar Ratio Epitope Accessibility (MREA)
1,B1,0
2,B2,0
3,B3,0

# Molecular target: T1, hTK
# Experiment: SPR sandwich matrix on hTK; row = primary antibody; secondary antibody (competitor): Antibody A
row,Binder,Molar Ratio Epitope Accessibility (MREA)
1,B1,0.2
2,B2,0.2
3,B3,0.4
